The record followed here is publication PMC7763228, “Structural Studies of HNA Substrate Specificity in Mutants of an Archaeal DNA Polymerase Obtained by Directed Evolution”.

The target in data set [1] is T1, TgoT_6G12 DNA polymerase (Thermococcus gorgonarius, UniProt P56689 1-773, V93Q;D141A;E143A;A485L;V589A;E609K;I610M;K659Q;E664Q;Q665P;R668K;D669Q;K671H;K67 …).
T1 sequence: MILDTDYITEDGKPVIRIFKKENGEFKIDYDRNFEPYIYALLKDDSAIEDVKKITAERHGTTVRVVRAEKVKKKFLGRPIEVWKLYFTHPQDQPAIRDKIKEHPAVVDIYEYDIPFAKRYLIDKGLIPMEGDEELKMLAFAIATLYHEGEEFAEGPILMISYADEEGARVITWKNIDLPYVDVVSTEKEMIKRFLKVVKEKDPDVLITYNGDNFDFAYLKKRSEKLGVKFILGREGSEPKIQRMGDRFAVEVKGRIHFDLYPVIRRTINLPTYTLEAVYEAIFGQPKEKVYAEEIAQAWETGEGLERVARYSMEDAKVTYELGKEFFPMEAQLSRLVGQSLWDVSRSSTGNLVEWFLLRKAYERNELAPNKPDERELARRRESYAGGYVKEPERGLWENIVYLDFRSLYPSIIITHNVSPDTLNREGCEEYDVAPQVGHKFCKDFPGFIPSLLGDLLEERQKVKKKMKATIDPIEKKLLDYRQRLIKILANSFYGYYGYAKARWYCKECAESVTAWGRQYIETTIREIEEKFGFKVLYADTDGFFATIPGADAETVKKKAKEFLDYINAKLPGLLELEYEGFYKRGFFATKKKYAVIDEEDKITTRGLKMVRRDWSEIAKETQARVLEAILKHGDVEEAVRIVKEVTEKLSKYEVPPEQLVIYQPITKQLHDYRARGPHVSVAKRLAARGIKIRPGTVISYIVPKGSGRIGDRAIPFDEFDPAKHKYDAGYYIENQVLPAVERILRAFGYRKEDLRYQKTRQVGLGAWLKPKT
The data set can be described thus: X-ray crystallography; binary complex, 2.8 A; ddTTP added; 10% PEG 20K, 0.1 M MES-NaOH pH 6.5; Co-crystallization: protein 5 mg/mL with 1.5x primer-template, 5 mM ddTTP or hCTP/ddCTP, 2 mM MnCl2 (not stated for the 6G12 binary DNA complex); incubated at 4 C (binary) or room temperature; 5-10% PEG 20K, 0.1 M MES-NaOH pH 6.0-6.5; protein buffer 50 mM Tris-HCl pH 7.5, 200 mM NaCl, 0.1 mM EDTA, 1 mM DTT. To be noted: protein: recombinant, template 5' overhang 8 nt.

In data set [2] the target is T1, TgoT_6G12 DNA polymerase. Kind of data set: X-ray crystallography; ternary complex with incoming ddTTP, 2 mM MnCl2, 3.15 A; 5% PEG 20K, 0.1 M MES-NaOH pH 6.0; Co-crystallization: protein 5 mg/mL with 1.5x primer-template, 5 mM ddTTP or hCTP/ddCTP, 2 mM MnCl2 (not stated for the 6G12 binary DNA complex); incubated at 4 C (binary) or room temperature; 5-10% PEG 20K, 0.1 M MES-NaOH pH 6.0-6.5; protein buffer 50 mM Tris-HCl pH 7.5, 200 mM NaCl, 0.1 mM EDTA, 1 mM …. To be noted: protein: recombinant, template 5' overhang 8 nt.

B1: P5-T13 primer-template (dsDNA)
DNA 1: CGCAT
DNA 2: AACGGCTAATGCG
Consider B1, for which, in the data set with TgoT_6G12 DNA polymerase [1], the binding result is “binds”.

B2: P5-T13' primer-template (dsDNA)
DNA 1: CGCAT
DNA 2: AACGGCAAATGCG
As to B2, in the data set with TgoT_6G12 DNA polymerase [2], the binding result is “binds”.
